Measured values published in article PMC3905715 (Nature Communications, 2013).

B1: mouse Rspo2 Fu1–Fu2 (mRspo2Fu1–Fu2, N37 or I39-G144), His10 [mouse] / mouse ZNRF3 ectodomain (K53-L205), biotinylated, immobilised for SPR [modified: biotin at the C-terminal BirA recognition sequence; biotin at the C-terminal BirA … (parent complex)
chain 1: ICKGCLSCSKDNGCSRCQQKLFFFLRREGMRQYGECLHSCPSGYYGHRAPDMNRCARCRIENCDSCFSKDFCTKCKVGFYLHRGRCFDECPDGFAPLDETMECVEG
chain 2: KETAFVEVVLFESSPSGDYTTHTTGLTGRFSRAGAMLSAEGEIVQMHPLGLCNNNDEEDLYEYGWVGVVKLEQPELDPKPCLTVLGKAKRAVQRGATAVIFDVSENPEAIDQLNQGSEDPLKRPVVYVKGADAIKLMNIVNKQKVARARIQHL

Variants of: B1
Test: SPR

| Variant | Kd [nM] |
| --- | --- |
| chain 2 M46T | 1500 |
| chain 2 Q45E | 5600 |

Variants of: B1
Test: SPR
Remark: another data set of the same source

| Variant | Kd [nM] |
| --- | --- |
| chain 2 E57K | 680 |
